# Test results taken from patent JP2018038398A (dated 2018).
# B1: TP-2A8 (Fab, V domains shown)
# VH: QVQLVESGGGLVQPGGSLRLSCAASGFTFRSYGMSWVRQAPGKGLEWVSSIRGSSSSTYYADSVKGRFTISRDNSKNTLYLQMNSLRAEDTAVYYCARKYRYWFDYWGQGTLVTVSS
# VL: DIELTQPPSVSVAPGQTARISCSGDNLRNYYAHWYQQKPGQAPVVVIYYDNNRPSGIPERFSGSNSGNTATLTISGTQAEDEADYYCQSWDDGVPVFGGGTKLTVLG
# notes: Human Fab from HuCAL Gold; also called Fab-2A8; TP-2A8-Fab
# B2: TP-4B7 (Fab, V domains shown)
# VH: QVQLQQSGPGLVKPSQTLSLTCAISGDSVSSNSAAWSWIRQSPGRGLEWLGIIYKRSKWYNDYAVSVKSRITINPDTSKNQFSLQLNSVTPEDTAVYYCARWHSDKHWGFDYWGQGTLVTVSS
# VL: DIVMTQSPLSLPVTPGEPASISCRSSQSLVFSDGNTYLNWYLQKPGQSPQLLIYKGSNRASGVPDRFSGSGSGTDFTLKISRVEAEDVGVYYCQQYDSYPLTFGQGTKVEIKR
# notes: Human Fab from HuCAL Gold
# B3: TP-2G6 (Fab, V domains shown)
# VH: QVQLQQSGPGLVKPSQTLSLTCAISGDSVSSSSAAWSWIRQSPGRGLEWLGIIYYRSKWYNDYAVSVKSRITINPDTSKNQFSLQLNSVTPEDTAVYYCARHSMVGFDVWGQGTLVTVSS
# VL: DIVLTQSPATLSLSPGERATLSCRASQYVTSSYLAWYQQKPGQAPRLLIYGSSRATGVPARFSGSGSGTDFTLTISSLEPEDFATYYCQQYSSSPITFGQGTKVEIKR
# notes: Human Fab from HuCAL Gold, purified over Ni-NTA; also called 2G6-Fab
# B4: 2G6−IgG (antibody, V domains shown)
# VH: B3 VH
# VL: B3 VL
# notes: also called IgG-2G6; 2G6-IgG
# Columns and labels:
# [1] = biological target: T1, ヒトTFPI(American Diagnostica) (human, UniProt P10646 29-304, limits assumed); experiment: ELISA screen of Fab lysates on coated human TFPI
# T1 construct: Coated on plates (ELISA) or coupled to a CM5 chip (Biacore); also called human TFPI; hTFPI
# T1 sequence (looked up): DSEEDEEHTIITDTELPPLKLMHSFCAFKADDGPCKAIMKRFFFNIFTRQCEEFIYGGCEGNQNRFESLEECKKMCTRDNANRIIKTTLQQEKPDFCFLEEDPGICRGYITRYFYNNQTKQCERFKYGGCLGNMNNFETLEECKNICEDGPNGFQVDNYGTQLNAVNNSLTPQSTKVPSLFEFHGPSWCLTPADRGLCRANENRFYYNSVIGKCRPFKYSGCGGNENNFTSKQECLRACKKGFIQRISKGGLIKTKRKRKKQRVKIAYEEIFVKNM
# [2] = biological target: T1, ヒトTFPI(American Diagnostica); experiment: ELISA on coated human TFPI
# マウスTFPI(R&D System) [3] = biological target: T2, マウスTFPI(R&D System) (mouse, UniProt O54819 29-289, limits assumed); experiment: ELISA on coated mouse TFPI
# T2 construct: also called mouse TFPI; mTFPI
# T2 sequence (looked up): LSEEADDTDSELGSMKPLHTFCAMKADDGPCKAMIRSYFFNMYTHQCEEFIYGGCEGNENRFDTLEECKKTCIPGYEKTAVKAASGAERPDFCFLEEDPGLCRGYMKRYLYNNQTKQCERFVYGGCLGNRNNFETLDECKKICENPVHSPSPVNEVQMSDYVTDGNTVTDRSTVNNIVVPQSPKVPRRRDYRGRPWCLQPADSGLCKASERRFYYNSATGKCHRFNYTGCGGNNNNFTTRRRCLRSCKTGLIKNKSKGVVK
# [4] = biological target: T1, ヒトTFPI(American Diagnostica); experiment: ELISA on coated human TFPI, IgG against Fab
# マウスTFPI(R&D System) [5] = biological target: T2, マウスTFPI(R&D System); experiment: ELISA on coated mouse TFPI, IgG against Fab
Binder,binding result [1],EC50 [2] [nM],EC50 (マウスTFPI(R&D System) [3]) [nM],fold change of EC50 against 2G6-Fab [4] [fold],fold change of EC50 against 2G6-Fab (マウスTFPI(R&D System) [5]) [fold]
B1,binds,–,–,–,–
B2,binds,–,–,–,–
B3,–,0.48,5.18,–,–
B4,–,0.22,0.51,2,10
